Test results from article PMC8286825 (Biochemical Journal, 2021).
Like-named read-outs stand apart in the source and are kept apart here.

Assays:
Experiment in all cases: AUC
AUC = target: the molecule itself
A6NHR9 [1] = target: A6NHR9
A6NHR9 [2] = target: A6NHR9; remark: listed apart in the source
A6NHR9 [3] = target: A6NHR9; remark: listed apart in the source
A6NHR9 [4] = target: A6NHR9; remark: listed apart in the source
A6NHR9 [5] = target: A6NHR9; remark: listed apart in the source

B1: UBL-containing SMCHD1 ATPase (residues 25–702) (domain or fragment, human, UniProt A6NHR9 25-702, looked up)
chain: HRTVYLFDRREKESELGDRPLQVGERSDYAGFRACVCQTLGISPEEKFVITTTSRKEITCDNFDETVKDGVTLYLLQSVNQLLLTATKERIDFLPHYDTLVKSGMYEYYASEGQNPLPFALAELIDNSLSATSRNIGVRRIQIKLLFDETQGKPAVAVIDNGRGMTSKQLNNWAVYRLSKFTRQGDFESDHSGYVRPVPVPRSLNSDISYFGVGGKQAVFFVGQSARMISKPADSQDVHELVLSKEDFEKKEKNKEAIYSGYIRNRKPSDSVHITNDDERFLHHLIIEEKEKDSFTAVVITGVQPEHIQYLKNYFHLWTRQLAHIYHYYIHGPKGNEIRTSKEVEPFNNIDIEISMFEKGKVPKIVNLREIQDDMQTLYVNTAADSFEFKAHVEGDGVVEGIIRYHPFLYDRETYPDDPCFPSKLKDEDDEDDCFILEKAARGKRPIFECFWNGRLIPYTSVEDFDWCTPPKKRGLAPIECYNRISGALFTNDKFQVSTNKLTFMDLELKLKDKNTLFTRILNGQEQRMKIDREFALWLKDCHEKYDKQIKFTLFKGVITRPDLPSKKQGPWATYAAIEWDGKIYKAGQLVKTIKTLPLFYGSIVRFFLYGDHDGEVYATGGEVQIAMEPQALYDEVRTVPIAKLDRTVAEKAVKKYVEDEMARLPDRLSVTWPEGDE
Question: Which “stoichiometry N” value (AUC) does the source give for B1 here?
Answer: 2

Question: And the Monomer (%) (A6NHR9 [1])?
Answer: 76.8%

Question: And the Monomer (%) (A6NHR9 [2])?
Answer: 61.5%

Question: What about the Monomer (%) (A6NHR9 [3]) of the same protein?
Answer: 53.4%

Question: What about the Monomer (%) (A6NHR9 [4]) of the same protein?
Answer: 57.6%

Question: What about the Monomer (%) (A6NHR9 [5]) of the same protein?
Answer: 88.2%
